Results as given in paper PMC10786891, “Massively parallel profiling of RNA-targeting CRISPR-Cas13d”.

T1: EsCas13d, nuclease-dead (Eubacterium siraeum, UniProt B0MS50, R295A;H300A;R849A;H854A)
T1 sequence: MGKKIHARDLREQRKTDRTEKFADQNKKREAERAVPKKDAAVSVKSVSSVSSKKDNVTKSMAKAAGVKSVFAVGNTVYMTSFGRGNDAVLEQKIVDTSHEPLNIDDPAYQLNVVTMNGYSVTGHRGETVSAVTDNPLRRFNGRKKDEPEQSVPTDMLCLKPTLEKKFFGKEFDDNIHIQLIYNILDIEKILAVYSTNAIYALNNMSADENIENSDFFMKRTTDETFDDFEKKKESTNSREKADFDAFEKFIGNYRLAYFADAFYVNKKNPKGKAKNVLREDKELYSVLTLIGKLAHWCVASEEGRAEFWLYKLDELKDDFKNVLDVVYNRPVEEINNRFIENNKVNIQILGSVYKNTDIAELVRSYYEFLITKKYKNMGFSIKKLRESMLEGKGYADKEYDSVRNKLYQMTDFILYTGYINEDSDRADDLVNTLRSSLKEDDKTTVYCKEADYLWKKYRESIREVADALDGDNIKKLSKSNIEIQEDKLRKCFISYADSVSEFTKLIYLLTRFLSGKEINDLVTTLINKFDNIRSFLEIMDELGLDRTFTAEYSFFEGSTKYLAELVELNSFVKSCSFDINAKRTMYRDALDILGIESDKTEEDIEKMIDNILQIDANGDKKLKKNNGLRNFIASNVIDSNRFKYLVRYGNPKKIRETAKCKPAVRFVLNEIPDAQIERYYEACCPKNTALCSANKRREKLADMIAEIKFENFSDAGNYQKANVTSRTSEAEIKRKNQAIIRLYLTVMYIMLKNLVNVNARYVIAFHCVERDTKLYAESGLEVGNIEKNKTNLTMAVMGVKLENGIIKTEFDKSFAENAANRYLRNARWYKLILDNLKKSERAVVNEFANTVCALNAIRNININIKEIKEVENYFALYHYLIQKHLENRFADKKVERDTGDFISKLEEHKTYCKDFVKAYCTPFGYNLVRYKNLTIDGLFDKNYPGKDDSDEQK


Biological target: T1, EsCas13d, nuclease-dead
Assay: crRNA (strand 1, pre-loaded); Mg2+; 40 mM Tris-HCl pH 7.5, 150 mM NaCl, 6 mM MgCl2, 1 mM DTT, 0.1% Tween-20, 0.2 mg/ml BSA; 25 C; 10 min per concentration, then washed
Conditions: tags: His6-TwinStrep-SUMO cleaved; N-terminal SNAP kept (SNAP-Surface 488); label: 3' end held by stalled T7 RNA polymerase

| Binder | Kd [nM] |
| --- | --- |
| target 1 insC 3' of 18,insG 3' of 14 (mixed) RNA 1: CACCCGUGCAAAAAUGCAGGGGUCUAAAACUGAGCGGAUAACCUCUCUAUGG RNA 2: GGGAAUGGAUCCACAUCUACGAAUUCGUACCAUACGAGAGGGUUAUCCGCUCACCGAGAUCGGAAGAGCACACGU | 47.4 ± 3 |
| target 1 insG 3' of 14,insA 3' of 10 (mixed) RNA 1: CACCCGUGCAAAAAUGCAGGGGUCUAAAACUGAGCGGAUAACCUCUCUAUGG RNA 2: GGGAAUGGAUCCACAUCUACGAAUUCGUACCAUAGAGAGGGUUAAUCCGCUCACCGAGAUCGGAAGAGCACACGU | 30.3 ± 2.3 |
| target 1 insC 3' of 20,insU 3' of 4 (mixed) RNA 1: CACCCGUGCAAAAAUGCAGGGGUCUAAAACUGAGCGGAUAACCUCUCUAUGG RNA 2: GGGAAUGGAUCCACAUCUACGAAUUCGUACCACUAGAGAGGUUAUCCGCUUCACCGAGAUCGGAAGAGCACACGU | 9.1 ± 0.5 |
| target 1 del5,del8 (mixed) RNA 1: CACCCGUGCAAAAAUGCAGGGGUCUAAAACUGAGCGGAUAACCUCUCUAUGG RNA 2: GGGAAUGGAUCCACAUCUACGAAUUCGUACCAUAGAGAGGUUACCCUCACCGAGAUCGGAAGAGCACACGU | 18 ± 0.8 |
| target 1 complement block 1-6 (mixed) RNA 1: CACCCGUGCAAAAAUGCAGGGGUCUAAAACUGAGCGGAUAACCUCUCUAUGG RNA 2: GGGAAUGGAUCCACAUCUACGAAUUCGUACCAUAGAGAGGUUAUCGCGAGUCCGAGAUCGGAAGAGCACACGU | 6.14 ± 0.25 |
| target 1 C2U,C7U (mixed) RNA 1: CACCCGUGCAAAAAUGCAGGGGUCUAAAACUGAGCGGAUAACCUCUCUAUGG RNA 2: GGGAAUGGAUCCACAUCUACGAAUUCGUACCAUAGAGAGGUUAUUCGCUUACCGAGAUCGGAAGAGCACACGU | 6.5 ± 0.27 |
| target 1 G12U,A20C (mixed) RNA 1: CACCCGUGCAAAAAUGCAGGGGUCUAAAACUGAGCGGAUAACCUCUCUAUGG RNA 2: GGGAAUGGAUCCACAUCUACGAAUUCGUACCCUAGAGAGUUUAUCCGCUCACCGAGAUCGGAAGAGCACACGU | 74 ± 32 |
| target 1 insA 3' of 10,insA 3' of 5 (mixed) RNA 1: CACCCGUGCAAAAAUGCAGGGGUCUAAAACUGAGCGGAUAACCUCUCUAUGG RNA 2: GGGAAUGGAUCCACAUCUACGAAUUCGUACCAUAGAGAGGUUAAUCCGACUCACCGAGAUCGGAAGAGCACACGU | 5.79 ± 0.32 |
| target 1 A1U,G5C (mixed) RNA 1: CACCCGUGCAAAAAUGCAGGGGUCUAAAACUGAGCGGAUAACCUCUCUAUGG RNA 2: GGGAAUGGAUCCACAUCUACGAAUUCGUACCAUAGAGAGGUUAUCCCCUCUCCGAGAUCGGAAGAGCACACGU | 8.9 ± 0.5 |
| target 1 A9G,A14G (mixed) RNA 1: CACCCGUGCAAAAAUGCAGGGGUCUAAAACUGAGCGGAUAACCUCUCUAUGG RNA 2: GGGAAUGGAUCCACAUCUACGAAUUCGUACCAUAGAGGGGUUGUCCGCUCACCGAGAUCGGAAGAGCACACGU | 14.4 ± 0.7 |
| target 1 insC 3' of 12,insA 3' of 12 (mixed) RNA 1: CACCCGUGCAAAAAUGCAGGGGUCUAAAACUGAGCGGAUAACCUCUCUAUGG RNA 2: GGGAAUGGAUCCACAUCUACGAAUUCGUACCAUAGAGAGGCAUUAUCCGCUCACCGAGAUCGGAAGAGCACACGU | 14.7 ± 1.5 |
| target 1 insC 3' of 17,insA 3' of 6 (mixed) RNA 1: CACCCGUGCAAAAAUGCAGGGGUCUAAAACUGAGCGGAUAACCUCUCUAUGG RNA 2: GGGAAUGGAUCCACAUCUACGAAUUCGUACCAUAGCAGAGGUUAUCCAGCUCACCGAGAUCGGAAGAGCACACGU | 44 ± 5 |
| target 1 insA 3' of 21,insU 3' of 12 (mixed) RNA 1: CACCCGUGCAAAAAUGCAGGGGUCUAAAACUGAGCGGAUAACCUCUCUAUGG RNA 2: GGGAAUGGAUCCACAUCUACGAAUUCGUACCAAUAGAGAGGUUUAUCCGCUCACCGAGAUCGGAAGAGCACACGU | 16.4 ± 0.8 |
| target 1 insU 3' of 21,insU 3' of 6 (mixed) RNA 1: CACCCGUGCAAAAAUGCAGGGGUCUAAAACUGAGCGGAUAACCUCUCUAUGG RNA 2: GGGAAUGGAUCCACAUCUACGAAUUCGUACCUAUAGAGAGGUUAUCCUGCUCACCGAGAUCGGAAGAGCACACGU | 31.4 ± 1.6 |
| target 1 insA 3' of 21,insU 3' of 2 (mixed) RNA 1: CACCCGUGCAAAAAUGCAGGGGUCUAAAACUGAGCGGAUAACCUCUCUAUGG RNA 2: GGGAAUGGAUCCACAUCUACGAAUUCGUACCAAUAGAGAGGUUAUCCGCUCUACCGAGAUCGGAAGAGCACACGU | 17.9 ± 1 |
| target 1 U3A,C21A (mixed) RNA 1: CACCCGUGCAAAAAUGCAGGGGUCUAAAACUGAGCGGAUAACCUCUCUAUGG RNA 2: GGGAAUGGAUCCACAUCUACGAAUUCGUACAAUAGAGAGGUUAUCCGCACACCGAGAUCGGAAGAGCACACGU | ~90 |
| target 1 A9G,A20C (mixed) RNA 1: CACCCGUGCAAAAAUGCAGGGGUCUAAAACUGAGCGGAUAACCUCUCUAUGG RNA 2: GGGAAUGGAUCCACAUCUACGAAUUCGUACCCUAGAGAGGUUGUCCGCUCACCGAGAUCGGAAGAGCACACGU | 54 ± 15 |
| target 1 C7U,A9G (mixed) RNA 1: CACCCGUGCAAAAAUGCAGGGGUCUAAAACUGAGCGGAUAACCUCUCUAUGG RNA 2: GGGAAUGGAUCCACAUCUACGAAUUCGUACCAUAGAGAGGUUGUUCGCUCACCGAGAUCGGAAGAGCACACGU | 15.7 ± 1.1 |
| target 1 U19C,C21A (mixed) RNA 1: CACCCGUGCAAAAAUGCAGGGGUCUAAAACUGAGCGGAUAACCUCUCUAUGG RNA 2: GGGAAUGGAUCCACAUCUACGAAUUCGUACAACAGAGAGGUUAUCCGCUCACCGAGAUCGGAAGAGCACACGU | 37 ± 5 |
| target 1 A9C,A14G (mixed) RNA 1: CACCCGUGCAAAAAUGCAGGGGUCUAAAACUGAGCGGAUAACCUCUCUAUGG RNA 2: GGGAAUGGAUCCACAUCUACGAAUUCGUACCAUAGAGGGGUUCUCCGCUCACCGAGAUCGGAAGAGCACACGU | 29.5 ± 2.4 |
| target 1 insG 3' of 22,insG 3' of 8 (mixed) RNA 1: CACCCGUGCAAAAAUGCAGGGGUCUAAAACUGAGCGGAUAACCUCUCUAUGG RNA 2: GGGAAUGGAUCCACAUCUACGAAUUCGUACGCAUAGAGAGGUUAUGCCGCUCACCGAGAUCGGAAGAGCACACGU | 68 ± 7 |
| target 1 insC 3' of 8,insC 3' of 8 (mixed) RNA 1: CACCCGUGCAAAAAUGCAGGGGUCUAAAACUGAGCGGAUAACCUCUCUAUGG RNA 2: GGGAAUGGAUCCACAUCUACGAAUUCGUACCAUAGAGAGGUUAUCCCCGCUCACCGAGAUCGGAAGAGCACACGU | 14.5 ± 0.7 |
| target 1 C7U,U11A (mixed) RNA 1: CACCCGUGCAAAAAUGCAGGGGUCUAAAACUGAGCGGAUAACCUCUCUAUGG RNA 2: GGGAAUGGAUCCACAUCUACGAAUUCGUACCAUAGAGAGGAUAUUCGCUCACCGAGAUCGGAAGAGCACACGU | 32.7 ± 2.9 |
| target 1 C7A,A14C (mixed) RNA 1: CACCCGUGCAAAAAUGCAGGGGUCUAAAACUGAGCGGAUAACCUCUCUAUGG RNA 2: GGGAAUGGAUCCACAUCUACGAAUUCGUACCAUAGAGCGGUUAUACGCUCACCGAGAUCGGAAGAGCACACGU | 34 ± 4 |
| target 1 C4U,G13C (mixed) RNA 1: CACCCGUGCAAAAAUGCAGGGGUCUAAAACUGAGCGGAUAACCUCUCUAUGG RNA 2: GGGAAUGGAUCCACAUCUACGAAUUCGUACCAUAGAGACGUUAUCCGUUCACCGAGAUCGGAAGAGCACACGU | 50 ± 10 |
| target 1 U8G,G12A (mixed) RNA 1: CACCCGUGCAAAAAUGCAGGGGUCUAAAACUGAGCGGAUAACCUCUCUAUGG RNA 2: GGGAAUGGAUCCACAUCUACGAAUUCGUACCAUAGAGAGAUUAGCCGCUCACCGAGAUCGGAAGAGCACACGU | 12.9 ± 1.4 |
| target 1 C2G,G5U (mixed) RNA 1: CACCCGUGCAAAAAUGCAGGGGUCUAAAACUGAGCGGAUAACCUCUCUAUGG RNA 2: GGGAAUGGAUCCACAUCUACGAAUUCGUACCAUAGAGAGGUUAUCCUCUGACCGAGAUCGGAAGAGCACACGU | 22.1 ± 1.4 |
| target 1 G5U,A9G (mixed) RNA 1: CACCCGUGCAAAAAUGCAGGGGUCUAAAACUGAGCGGAUAACCUCUCUAUGG RNA 2: GGGAAUGGAUCCACAUCUACGAAUUCGUACCAUAGAGAGGUUGUCCUCUCACCGAGAUCGGAAGAGCACACGU | 27.2 ± 1.8 |
